Results reported in patent US20230021388A1 (VELOSBIO, published 2023).
Numbering of substitutions follows the chain as printed. Names may count otherwise. “And” between values parts separate entries of the source, which are not always exact repeats. Identical values can stand only once.

Experiments:
[1] = molecular target: T1, human ROR1 on live cells (human, UniProt Q01973 30-937); assay: flow cytometry on live JeKo-1 cells, Fab detected with anti-HA-PE
T1 construct: ROR1-transfected MEC cells (~56,000 copies/cell) or JeKo-1 cells (~13,000 copies/cell); the cell line is named under assay; also called ROR1-transfected MEC cells; JeKo-1 cells
T1 sequence (Q01973 30-937 limits assumed): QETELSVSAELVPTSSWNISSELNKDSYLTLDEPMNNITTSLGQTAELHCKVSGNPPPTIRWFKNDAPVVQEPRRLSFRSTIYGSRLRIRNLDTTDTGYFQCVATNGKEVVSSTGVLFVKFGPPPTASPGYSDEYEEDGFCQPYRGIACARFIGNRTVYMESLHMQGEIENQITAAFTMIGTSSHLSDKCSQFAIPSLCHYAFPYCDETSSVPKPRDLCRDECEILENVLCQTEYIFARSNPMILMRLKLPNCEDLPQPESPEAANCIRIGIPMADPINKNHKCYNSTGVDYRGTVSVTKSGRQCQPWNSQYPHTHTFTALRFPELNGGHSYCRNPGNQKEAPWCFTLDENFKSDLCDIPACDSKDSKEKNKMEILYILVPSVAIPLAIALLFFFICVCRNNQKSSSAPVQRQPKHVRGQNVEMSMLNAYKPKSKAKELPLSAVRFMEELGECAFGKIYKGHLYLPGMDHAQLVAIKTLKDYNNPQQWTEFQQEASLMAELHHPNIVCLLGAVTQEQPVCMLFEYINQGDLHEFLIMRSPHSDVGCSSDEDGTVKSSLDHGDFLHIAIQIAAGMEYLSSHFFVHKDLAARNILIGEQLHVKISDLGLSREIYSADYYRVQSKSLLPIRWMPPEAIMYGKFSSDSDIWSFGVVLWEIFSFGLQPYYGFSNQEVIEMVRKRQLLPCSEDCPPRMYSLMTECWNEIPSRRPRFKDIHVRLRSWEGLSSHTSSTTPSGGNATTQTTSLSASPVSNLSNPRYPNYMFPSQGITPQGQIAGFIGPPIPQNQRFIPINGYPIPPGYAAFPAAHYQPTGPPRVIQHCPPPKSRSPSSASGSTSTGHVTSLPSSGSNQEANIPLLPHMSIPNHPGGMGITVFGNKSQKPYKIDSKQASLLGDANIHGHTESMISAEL
Description: (§1) ROR1 binding was quantitated using flow cytometry and 2.5E5 ROR1-transfected MEC cells or JeKo-1 cells for each concentration of Fab variant. The cells were placed in 50 μL of PBS with 2% FBS. Next, the cells were diluted with an equal volume of 2× stock of the test Fab variant and the cells and antibody were co-incubated on ice for 20 min. The cells were then washed 3 times with 300 μL of FACS buffer and were resuspended in 100 μL of a 70-fold dilution of anti-HA.11-PE conjugate, clone 16B12 (BioLegend, cat. #901517) and incubated on ice with reduced light for 20 min. Subsequently, the cells were washed 3 times with 300 μL of FACS buffer and fixed with 2% paraformaldehyde for 10 min at 25° C. The cells then were washed 2 times with 300 μL of FACS buffer and analyzed on a Miltenyi MACSQuant Analyzer.

[2] = molecular target: T2, recombinant human ROR1 extracellular domain (human, UniProt Q01973 30-406); assay: ELISA, soluble Fab on coated huROR1-ECD; WT control beside variant G27N (…, SEQ ID NO: 15)
T2 construct: biotinylated for the filter lifts; also called huROR1-ECD; human ROR1-ECD
T2 sequence (Q01973 30-406 limits assumed): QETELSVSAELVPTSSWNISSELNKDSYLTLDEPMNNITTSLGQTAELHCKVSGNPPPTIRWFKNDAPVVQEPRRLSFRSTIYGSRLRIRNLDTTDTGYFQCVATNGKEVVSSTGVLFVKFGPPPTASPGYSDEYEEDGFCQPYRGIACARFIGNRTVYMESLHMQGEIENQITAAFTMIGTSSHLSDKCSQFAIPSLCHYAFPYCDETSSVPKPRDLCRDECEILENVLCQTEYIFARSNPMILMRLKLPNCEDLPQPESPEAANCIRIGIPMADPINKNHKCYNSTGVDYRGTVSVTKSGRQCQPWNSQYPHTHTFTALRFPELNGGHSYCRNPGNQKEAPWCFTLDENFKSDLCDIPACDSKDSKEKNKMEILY
Description: (§2) The previously described filter lift assay provides a visual, qualitative assessment of antigen binding (Example 1). In order to assess the ROR1 binding activity of Ab1 Fab in a more quantitative fashion, an ELISA assay was developed. A 96-well Costar-3366 plate was coated with 50 μL/well of 1 μg/mL human ROR1-ECD (ACROBiosystems, cat. #RO1-H522y) in PBS overnight at 4° C. The plate was rinsed once with PBS-T and blocked with 100 μL/well of 5% M-P for 1 h at 25° C. Fab samples were serially diluted 3-fold using 5% M-P and 50 μL/well was incubated for 1 h at 25° C. The plate was washed three times with PBS-T and 50 μL/well anti-human kappa, and HRP conjugate (Southern Biotech, cat. #2060-05) diluted 10,000-fold in 5% M-P was added for 1 h at 25° C. In certain assays (extended wash format), the plate was placed in large volumes (up to 1 L) of PBS-T and incubated, with mixing, for 2-5 h prior to the addition of anti-human kappa, HRP conjugate. The plate was washed three times with PBS-T, and developed with 50 μL/well 1-Step Ultra TMB-ELISA (Thermo Scientific, cat. #34028). The reaction was terminated by the addition of 2 N H2504 and the A450 was determined using a Spectramax plate reader.

[3] = molecular target: T2, recombinant human ROR1 extracellular …; assay: ELISA, soluble Fab on coated huROR1-ECD
Description: as §2

[4] = molecular target: T2, recombinant human ROR1 extracellular …; assay: ELISA, soluble Fab on coated huROR1-ECD; remark: listed apart in the source
[5] = molecular target: T2, recombinant human ROR1 extracellular …; assay: ELISA, soluble Fab on coated huROR1-ECD; remark: listed apart in the source
[6] = molecular target: T2, recombinant human ROR1 extracellular …; assay: ELISA with prolonged wash, soluble Fab on coated huROR1-ECD
Description: as §2
(§3) Subsequently, the libraries were screened by capture lift to identify the strongest binding variants. The identity of the variants was determined by DNA sequencing and the relative affinities were characterized using an ELISA (described in Example 2) modified to enable further discrimination between the highest affinity variants. Specifically, following the initial incubation with soluble Fab, the plates were washed for a prolonged time (>1 h) in large volumes of PBS-T. The plates were then developed as described in Example 2.

[7] = molecular target: T1, human ROR1 on live cells; assay: flow cytometry on live ROR1-transfected MEC cells, Fab detected with anti-HA-PE
Description: as §1
Initially, three anti-ROR1 Fab variants, each differing from the parental antibody by a single amino acid, were characterized for binding to human ROR1 using live ROR1-transfected MEC cells. […] The binding profiles of the variants on live ROR1-transfected MEC cells were consistent with the binding profiles obtained using recombinant huROR1-ECD and an ELISA (see Example 3, FIG. 5).

[8] = molecular target: T2, recombinant human ROR1 extracellular …; assay: ELISA with prolonged wash (>1 h in PBS-T): huROR1-ECD coated on the plate, soluble Fab titrated, anti-human kappa-HRP detection
Description: as §2, with “The plate was washed three times with PBS-T, and developed with 50 μL/well 1-Step Ultra TMB-ELISA (Thermo Scientific, cat. #34028).” left out
Subsequently, the libraries were screened by capture lift to identify the strongest binding variants. The identity of the variants was determined by DNA sequencing and the relative affinities were characterized using an ELISA (described in Example 2) modified to enable further discrimination between the highest affinity variants. […]

[9] = molecular target: T2, recombinant human ROR1 extracellular …; assay: ELISA with prolonged wash, soluble Fab on coated huROR1-ECD; remark: listed apart in the source
Description: as §2, §3

[10] = molecular target: T2, recombinant human ROR1 extracellular …; assay: as above; remark: listed apart in the source
Description: as §2, §3

[11] = molecular target: T2, recombinant human ROR1 extracellular …; assay: as above; remark: listed apart in the source
Description: as §2, §3

[12] = molecular target: T2, recombinant human ROR1 extracellular …; assay: ELISA: huROR1-ECD coated on the plate, periplasmic scFv in serial dilution, anti-HA-HRP detection; x axis is Log [relative expression], no concentration unit
Description: scFv constructs were expressed and isolated from the periplasmic space using the same protocol that was used for Fabs (Example 2). In order to quantitate the relative levels of scFv expression of the three variants, a 96-well Costar-3366 plate was coated with 50 μl/well of 2 μg/mL anti-FLAG-unlabeled (Rockland, cat. #600-401-383) in PBS overnight at 4° C. The plate was washed three times with PBS containing 0.05% Tween 20 (PBS-T) and blocked with 100 μL of 5% M-P. The plate was washed once, then 50 μl/well of sample dilutions was added. Sample dilutions were performed with 5% M-P. The plates were incubated 1 h at 25° C., washed three times with PBS-T, and incubated with 50 μl/well of anti-HA HRP conjugate (Roche, cat. #12013819001), diluted 1,000-fold in 5% M-P for 1 h at 25° C. The plate was washed three times with PBS-T, and developed with 50 μl/well 1-Step Ultra TMB-ELISA (Thermo Scientific, Prod. #34028, Lot #SF2405221). The reaction was terminated by the addition of 2 N H2504 and the A450 was determined using a Spectramax plate reader.
Next, the binding of the isolated scFv variants to huROR1-ECD was assessed by ELISA as described in Example 2. A 96-well Costar-3366 plate was coated with 50 μl/well of 1 μg/mL human ROR-1 (AcroBiosystems, cat. #R01H522Y) in PBS overnight at 4° C. The plate was washed three times with PBS-T and blocked with 100 μL of 5% M-P. The plate was washed once, then 50 μl/well of 2-fold serial dilutions of sample was added. Sample dilutions were performed with 5% M-P. The plates were incubated 1 h at 25° C., washed three times with PBS-T, and incubated with 50 μl/well of anti-HA HRP conjugate (Roche, cat. #12013819001), diluted 1,000-fold in 5% M-P for 1 h at 25° C. […] The reaction was terminated by the addition of 2 N H₂SO₄ and the A450 was determined using a Spectramax plate reader. In order to compare the relative binding strength of the scFv variants, the expression levels as determined using the scFv ELISA described above were normalized to the Ab1 parental construct. […]

[13] = molecular target: T1, human ROR1 on live cells; assay: flow cytometry on live JeKo-1 cells, scFv detected with anti-HA-PE; x axis is Log [relative scFv expression], no concentration unit

B1: Ab1 Fab (Fab, V domains shown)
VH: QVQLQESGPGLVKPSQTLSLTCTVSGYAFTAYNIHWVRQAPGQGLEWMGSFDPYDGGSSYNQKFKDRLTISKDTSKNQVVLTMTNMDPVDTATYYCARGWYYFDYWGHGTLVTVSS
VL: DIVMTQTPLSLPVTPGEPASISCRASKSISKYLAWYQQKPGQAPRLLIYSGSTLQSGIPPRFSGSGYGTDFTLTINNIESEDAAYYFCQQHDESPYTFGEGTKVEIK
notes: Soluble Fab from an M13 phage vector in E. coli: VL + kappa constant region, VH + human CH1 + His and HA tags; also called WT; parental Fab
[1]
  EC50 (read off the curve): ~10 nM
[2]
  Kd: 3.2 nM
[3]
  Kd: 7 nM
[4]
  Kd: 3 nM
[5]
  Kd: 3.2 nM and 6 nM

B2: Ab1 Fab variant H3 W110F (Fab, V domains shown)
VH: B1 VH with W100F
VL: B1 VL
notes: Fab
[3]
  Kd: 96 nM

B3: Ab1 Fab variant H3 W110H (Fab, V domains shown)
VH: B1 VH with W100H
VL: B1 VL
notes: Fab
[3]
  Kd: 110 nM

B4: Ab1 Fab variant H1 T32A + L1 A25P + L2 Q71T (Fab, V domains shown)
VH: B1 VH with T30A
VL: B1 VL with A25P, Q55T
notes: Fab
[6]
  Kd: 2.9 nM

B5: Ab1 Fab variant H3 W110Y (Fab, V domains shown)
VH: B1 VH with W100Y
VL: B1 VL
notes: Fab
[3]
  Kd: 68 nM
[4]
  fold reduction of binding against Ab1: 10 to 23 fold

B6: Ab1 Fab variant H3 W110M (Fab, V domains shown)
VH: B1 VH with W100M
VL: B1 VL
notes: Fab
[3]
  Kd: 160 nM
[4]
  fold reduction of binding against Ab1: 10 to 23 fold

B7: Ab1 Fab variant H1 T32A (Fab, V domains shown)
VH: B1 VH with T30A
VL: B1 VL
notes: Fab
[7]
  EC50 (read off the curve): ~0.05 µg/mL
[1]
  EC50 (read off the curve): ~2 nM
[8]
  EC50 (read off the curve): ~3 nM
[9]
  Kd: 3.6 nM and 1.6 nM and 2.7 nM
[10]
  Kd: 3 nM and 2.7 nM
[4]
  fold increase of binding against Ab1: ~4 fold
[11]
  Kd: 3 nM
[5]
  Kd: 1.5 nM

B8: Ab1 Fab variant H1 T32A + L1 A25P + L2 L70K (Fab, V domains shown)
VH: B1 VH with T30A
VL: B1 VL with A25P, L54K
notes: Fab
[1]
  EC50 (read off the curve): ~1 nM
[6]
  Kd: 2.1 nM

B9: Ab1 Fab variant H1 T32A + L1 A25P (Fab, V domains shown)
VH: B1 VH with T30A
VL: B1 VL with A25P
notes: Fab
[6]
  Kd: 1.8 nM
[10]
  Kd: 1.8 nM

B10: Ab1 Fab variant H1 T32A + L1 A25P + L2 T69H (Fab, V domains shown)
VH: B1 VH with T30A
VL: B1 VL with A25P, T53H
notes: Fab
[6]
  Kd: 2.3 nM

B11: Ab1 Fab variant H1 T32A + L1 A25P + L2 T69R (Fab, V domains shown)
VH: B1 VH with T30A
VL: B1 VL with A25P, T53R
notes: Fab
[1]
  EC50 (read off the curve): ~1 nM
[6]
  Kd: 2.4 nM
[10]
  Kd: 2.1 nM

B12: H1 T32A Ab1 scFv (scFv)
scFv: QVQLQESGPGLVKPSQTLSLTCTVSGYAFAAYNIHWVRQAPGQGLEWMGSFDPYDGGSSYNQKFKDRLTISKDTSKNQVVLTMTNMDPVDTATYYCARGWYYFDYWGHGTLVTVSSGGGGSGGGGSGGGGSADIVMTQTPLSLPVTPGEPASISCRASKSISKYLAWYQQKPGQAPRLLIYSGSTLQSGIPPRFSGSGYGTDFTLTINNIESEDAAYYFCQQHDESPYTFGEGTKVEIKRDYKDDDDKGKPGSGKPGSGKPGSGKPGSYPYDVPDYAS
notes: VH - linker - VL with C-terminal FLAG and HA tags; also called scFv variant H1 T32A; Ab1.1
[12]
  binding result: binds
[13]
  binding result: binds

B13: H1 T32A/L2 T69R Ab1 scFv (scFv)
scFv: B12 scFv with T185R
notes: VH - linker - VL with C-terminal FLAG and HA tags; also called scFv variant H1 T32A+L2 T69R; Ab1.2
[12]
  binding result: binds
[13]
  binding result: binds

B14: Ab1 scFv (scFv)
scFv: B12 scFv with A30T
notes: the pelB leader is not part of the entry; also called parental Ab1 scFv; Ab1 parental construct
[12]
  binding result: binds
[13]
  binding result: binds
